Laboratory results taken from publication doi:10.1101/2020.05.12.090381 (bioRxiv, 2020).
Values belong to the molecule of their own block, whether it stands above or below them.

What was measured:
Assay in all cases: negative stain EM
[1] = biological target: LdcI R97E/R468E (E. coli) (UniProt P0A9H3)
[2] = biological target: LdcI E445A/D447A/R468E (E. coli) (UniProt P0A9H3)
[3] = biological target: Dendra2_(T69A)-LdcI (N-terminal fluorescent protein fusion of LdcI) (not stated | E. coli)
[4] = biological target: LdcI R468E (E. coli) (UniProt P0A9H3)
[5] = biological target: LdcI-Dendra2_(T69A) (C-terminal fluorescent protein fusion of LdcI) (E. coli | not stated)
[6] = biological target: the molecule itself
[7] = biological target: the molecule itself; remark: listed apart in the source

stoichiometry N [1]: 10
Molecule: LdcI R97E/R468E (from UniProt P0A9H3 1-715) (enzyme)

stoichiometry N [2]: 10
Molecule: LdcI E445A/D447A/R468E (from UniProt P0A9H3 1-715) (enzyme)

stoichiometry N [3]: 2
Molecule: Dendra2_(T69A)-LdcI (N-terminal fluorescent protein fusion of LdcI)

stoichiometry N [4]: 10
Molecule: LdcI R468E (from UniProt P0A9H3 1-715) (enzyme)

stoichiometry N [5]: 10
Molecule: LdcI-Dendra2_(T69A) (C-terminal fluorescent protein fusion of LdcI)

B1: mGeosM-LdcI (N-terminal fluorescent protein fusion of LdcI) (other)
chain: MSAIKPDMKIKLRMEGNVNGHHFVIDGDGTGKPFEGKQSMDLEVKEGGPLPFAFDILTTAFMYGNRVFAKYPDNIQDYFKQSFPKGYSWERSLTFEDGGICIARNDITMEGDTFYNKVRFYGTNFPANGPVMQKKTLKWEPSTEKMYVRDGVLTGDIHMALLLEGNAHYRCDSRTTYKAKEKGVKLPGYHFVDHCIEILSHDKDYNKVKLYEHAVAHSGLPDNARRMNVIAILNHMGVYFKEEPIRELHRALERLNFQIVYPNDRDDLLKLIENNARLCGVIFDWDKYNLELCEEISKMNENLPLYAFANTYSTLDVSLNDLRLQISFFEYALGAAEDIANKIKQTTDEYINTILPPLTKALFKYVREGKYTFCTPGHMGGTAFQKSPVGSLFYDFFGPNTMKSDISISVSELGSLLDHSGPHKEAEQYIARVFNADRSYMVTNGTSTANKIVGMYSAPAGSTILIDRNCHKSLTHLMMMSDVTPIYFRPTRNAYGILGGIPQSEFQHATIAKRVKETPNATWPVHAVITNSTYDGLLYNTDFIKKTLDVKSIHFDSAWVPYTNFSPIYEGKCGMSGGRVEGKVIYETQSTHKLLAAFSQASMIHVKGDVNEETFNEAYMMHTTTSPHYGIVASTETAAAMMKGNAGKRLINGSIERAIKFRKEIKRLRTESDGWFFDVWQPDHIDTTECWPLRSDSTWHGFKNIDNEHMYLDPIKVTLLTPGMEKDGTMSDFGIPASIVAKYLDEHGIVVEKTGPYNLLFLFSIGIDKTKALSLLRALTDFKRAFDLNLRVKNMLPSLYREDPEFYENMRIQELAQNIHKLIVHHNLPDLMYRAFEVLPTMVMTPYAAFQKELHGMTEEVYLDEMVGRINANMILPYPPGVPLVMPGEMITEESRPVLEFLQMLCEIGAHYPGFETDIHGAYRQADGRYTVKVLKEESKK
stoichiometry N [6]: 12

B2: LdcI H694A (enzyme, E. coli, UniProt P0A9H3 1-715, looked up)
chain: MNVIAILNHMGVYFKEEPIRELHRALERLNFQIVYPNDRDDLLKLIENNARLCGVIFDWDKYNLELCEEISKMNENLPLYAFANTYSTLDVSLNDLRLQISFFEYALGAAEDIANKIKQTTDEYINTILPPLTKALFKYVREGKYTFCTPGHMGGTAFQKSPVGSLFYDFFGPNTMKSDISISVSELGSLLDHSGPHKEAEQYIARVFNADRSYMVTNGTSTANKIVGMYSAPAGSTILIDRNCHKSLTHLMMMSDVTPIYFRPTRNAYGILGGIPQSEFQHATIAKRVKETPNATWPVHAVITNSTYDGLLYNTDFIKKTLDVKSIHFDSAWVPYTNFSPIYEGKCGMSGGRVEGKVIYETQSTHKLLAAFSQASMIHVKGDVNEETFNEAYMMHTTTSPHYGIVASTETAAAMMKGNAGKRLINGSIERAIKFRKEIKRLRTESDGWFFDVWQPDHIDTTECWPLRSDSTWHGFKNIDNEHMYLDPIKVTLLTPGMEKDGTMSDFGIPASIVAKYLDEHGIVVEKTGPYNLLFLFSIGIDKTKALSLLRALTDFKRAFDLNLRVKNMLPSLYREDPEFYENMRIQELAQNIHKLIVHHNLPDLMYRAFEVLPTMVMTPYAAFQKELHGMTEEVYLDEMVGRINANMILPYPPGVPLVMPGEMITEESRPVLEFLQMLCEIGAHYPGFETDIAGAYRQADGRYTVKVLKEESKK
binding result [7]: binds

B3: LdcI H694N (enzyme, E. coli, UniProt P0A9H3 1-715, looked up)
chain: MNVIAILNHMGVYFKEEPIRELHRALERLNFQIVYPNDRDDLLKLIENNARLCGVIFDWDKYNLELCEEISKMNENLPLYAFANTYSTLDVSLNDLRLQISFFEYALGAAEDIANKIKQTTDEYINTILPPLTKALFKYVREGKYTFCTPGHMGGTAFQKSPVGSLFYDFFGPNTMKSDISISVSELGSLLDHSGPHKEAEQYIARVFNADRSYMVTNGTSTANKIVGMYSAPAGSTILIDRNCHKSLTHLMMMSDVTPIYFRPTRNAYGILGGIPQSEFQHATIAKRVKETPNATWPVHAVITNSTYDGLLYNTDFIKKTLDVKSIHFDSAWVPYTNFSPIYEGKCGMSGGRVEGKVIYETQSTHKLLAAFSQASMIHVKGDVNEETFNEAYMMHTTTSPHYGIVASTETAAAMMKGNAGKRLINGSIERAIKFRKEIKRLRTESDGWFFDVWQPDHIDTTECWPLRSDSTWHGFKNIDNEHMYLDPIKVTLLTPGMEKDGTMSDFGIPASIVAKYLDEHGIVVEKTGPYNLLFLFSIGIDKTKALSLLRALTDFKRAFDLNLRVKNMLPSLYREDPEFYENMRIQELAQNIHKLIVHHNLPDLMYRAFEVLPTMVMTPYAAFQKELHGMTEEVYLDEMVGRINANMILPYPPGVPLVMPGEMITEESRPVLEFLQMLCEIGAHYPGFETDINGAYRQADGRYTVKVLKEESKK
binding result [7]: binds

B4: LdcI-mGeosM (C-terminal fluorescent protein fusion of LdcI) (other)
chain: MNVIAILNHMGVYFKEEPIRELHRALERLNFQIVYPNDRDDLLKLIENNARLCGVIFDWDKYNLELCEEISKMNENLPLYAFANTYSTLDVSLNDLRLQISFFEYALGAAEDIANKIKQTTDEYINTILPPLTKALFKYVREGKYTFCTPGHMGGTAFQKSPVGSLFYDFFGPNTMKSDISISVSELGSLLDHSGPHKEAEQYIARVFNADRSYMVTNGTSTANKIVGMYSAPAGSTILIDRNCHKSLTHLMMMSDVTPIYFRPTRNAYGILGGIPQSEFQHATIAKRVKETPNATWPVHAVITNSTYDGLLYNTDFIKKTLDVKSIHFDSAWVPYTNFSPIYEGKCGMSGGRVEGKVIYETQSTHKLLAAFSQASMIHVKGDVNEETFNEAYMMHTTTSPHYGIVASTETAAAMMKGNAGKRLINGSIERAIKFRKEIKRLRTESDGWFFDVWQPDHIDTTECWPLRSDSTWHGFKNIDNEHMYLDPIKVTLLTPGMEKDGTMSDFGIPASIVAKYLDEHGIVVEKTGPYNLLFLFSIGIDKTKALSLLRALTDFKRAFDLNLRVKNMLPSLYREDPEFYENMRIQELAQNIHKLIVHHNLPDLMYRAFEVLPTMVMTPYAAFQKELHGMTEEVYLDEMVGRINANMILPYPPGVPLVMPGEMITEESRPVLEFLQMLCEIGAHYPGFETDIHGAYRQADGRYTVKVLKEESKK
stoichiometry N [6]: 10

B5: LdcI E445A/D447A (enzyme, E. coli, UniProt P0A9H3 1-715, looked up)
chain: MNVIAILNHMGVYFKEEPIRELHRALERLNFQIVYPNDRDDLLKLIENNARLCGVIFDWDKYNLELCEEISKMNENLPLYAFANTYSTLDVSLNDLRLQISFFEYALGAAEDIANKIKQTTDEYINTILPPLTKALFKYVREGKYTFCTPGHMGGTAFQKSPVGSLFYDFFGPNTMKSDISISVSELGSLLDHSGPHKEAEQYIARVFNADRSYMVTNGTSTANKIVGMYSAPAGSTILIDRNCHKSLTHLMMMSDVTPIYFRPTRNAYGILGGIPQSEFQHATIAKRVKETPNATWPVHAVITNSTYDGLLYNTDFIKKTLDVKSIHFDSAWVPYTNFSPIYEGKCGMSGGRVEGKVIYETQSTHKLLAAFSQASMIHVKGDVNEETFNEAYMMHTTTSPHYGIVASTETAAAMMKGNAGKRLINGSIERAIKFRKEIKRLRTASAGWFFDVWQPDHIDTTECWPLRSDSTWHGFKNIDNEHMYLDPIKVTLLTPGMEKDGTMSDFGIPASIVAKYLDEHGIVVEKTGPYNLLFLFSIGIDKTKALSLLRALTDFKRAFDLNLRVKNMLPSLYREDPEFYENMRIQELAQNIHKLIVHHNLPDLMYRAFEVLPTMVMTPYAAFQKELHGMTEEVYLDEMVGRINANMILPYPPGVPLVMPGEMITEESRPVLEFLQMLCEIGAHYPGFETDIHGAYRQADGRYTVKVLKEESKK
binding result [7]: binds

B6: LdcI R97E (enzyme, E. coli, UniProt P0A9H3 1-715, looked up)
chain: MNVIAILNHMGVYFKEEPIRELHRALERLNFQIVYPNDRDDLLKLIENNARLCGVIFDWDKYNLELCEEISKMNENLPLYAFANTYSTLDVSLNDLELQISFFEYALGAAEDIANKIKQTTDEYINTILPPLTKALFKYVREGKYTFCTPGHMGGTAFQKSPVGSLFYDFFGPNTMKSDISISVSELGSLLDHSGPHKEAEQYIARVFNADRSYMVTNGTSTANKIVGMYSAPAGSTILIDRNCHKSLTHLMMMSDVTPIYFRPTRNAYGILGGIPQSEFQHATIAKRVKETPNATWPVHAVITNSTYDGLLYNTDFIKKTLDVKSIHFDSAWVPYTNFSPIYEGKCGMSGGRVEGKVIYETQSTHKLLAAFSQASMIHVKGDVNEETFNEAYMMHTTTSPHYGIVASTETAAAMMKGNAGKRLINGSIERAIKFRKEIKRLRTESDGWFFDVWQPDHIDTTECWPLRSDSTWHGFKNIDNEHMYLDPIKVTLLTPGMEKDGTMSDFGIPASIVAKYLDEHGIVVEKTGPYNLLFLFSIGIDKTKALSLLRALTDFKRAFDLNLRVKNMLPSLYREDPEFYENMRIQELAQNIHKLIVHHNLPDLMYRAFEVLPTMVMTPYAAFQKELHGMTEEVYLDEMVGRINANMILPYPPGVPLVMPGEMITEESRPVLEFLQMLCEIGAHYPGFETDIHGAYRQADGRYTVKVLKEESKK
binding result [7]: binds
